From patent US9958461B2, “Detection of protein to protein interactions” (THE GOVERNING COUNCIL OF THE UNIVERSITY OF TORONTO, priority 2013, dated 2018)

What was measured:
EGFR-Wt [1] = molecular target: T1, EGFR-Wt (Homo sapiens, UniProt P00533); test: MaMTH EGFR-interactor screen, lentiviral preys against EGFR-wildtype bait (interaction score); format: cell-based; conditions: MaMTH interaction score of prey with EGFR-Wt bait, mean
T1 construct: with the advantage of testing full-length integral membrane proteins; (GGGGS)2 linker-Cub (human ubiquitin aa 35-76)-GAL4(1-147)-mNFkB(364-550) (C); expressed in transfected cells
How it was run: (§1)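 Interaction score is the luciferase fold-change versus averaged negative controls (Fabp5, Pex19, Pex7, GABBR2), with >1 called interacting. Luciferase was measured 24 h after triplicate bait transfection. This followed single-copy prey transduction (MOI ~0.3-0.4) of GAL4UAS-luciferase HEK293T cells and ≥48 h puromycin selection.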

EGFR-Wt [2] = test: as above; format: cell-based, human; conditions: ratio of EGFR-Wt mean to EGFR-L858R mean interaction score
How it was run: as §1

EGFR-L858R = molecular target: T2, EGFR-L858R (Homo sapiens, UniProt P00533, L858R); test: MaMTH EGFR-interactor screen, lentiviral preys against EGFR-L858R bait (interaction score); format: cell-based; conditions: MaMTH interaction score of prey with EGFR-L858R bait
T2 construct: with the advantage of testing full-length integral membrane proteins; (GGGGS)2 linker-Cub (human ubiquitin aa 35-76)-GAL4(1-147)-mNFkB(364-550) (C); expressed in transfected cells
How it was run: as §1

EGFR-Wt mean (EGFR-Wt [1])	EGFR-L858R mean (EGFR-L858R)	Molecule	Wt/L858R (EGFR-Wt [2])
1.27	1.36	PTPN2 (protein, UniProt P17706 1-415, looked up) Tyrosine-protein phosphatase …: MPTTIEREFEELDTQRRWQPLYLEIRNESHDYPHRVAKFPENRNRNRYRDVSPYDHSRVKLQNAENDYINASLVDIEEAQRSYILTQGPLPNTCCHFWLMVWQQKTKAVVMLNRIVEKESVKCAQYWPTDDQEMLFKETGFSVKLLSEDVKSYYTVHLLQLENINSGETRTISHFHYTTWPDFGVPESPASFLNFLFKVRESGSLNPDHGPAVIHCSAGIGRSGTFSLVDTCLVLMEKGDDINIKQVLLNMRKYRMGLIQTPDQLRFSYMAIIEGAKCIKGDSSIQKRWKELSKEDLSPAFDHSPNKIMTEKYNGNRIGLEEEKLTGDRCTGLSSKMQDTMEENSESALRKRIREDRKATTAQKVQQMKQRLNENERKRKRWLYWQPILTKMGFMSVILVGAFVGWTLFFQQNAL	0.93
1.22	5.90	SOCS6 (protein, UniProt O14544 1-535, looked up) Suppressor of cytokine …: MKKISLKTLRKSFNLNKSKEETDFMVVQQPSLASDFGKDDSLFGSCYGKDMASCDINGEDEKGGKNRSKSESLMGTLKRRLSAKQKSKGKAGTPSGSSADEDTFSSSSAPIVFKDVRAQRPIRSTSLRSHHYSPAPWPLRPTNSEETCIKMEVRVKALVHSSSPSPALNGVRKDFHDLQSETTCQEQANSLKSSASHNGDLHLHLDEHVPVVIGLMPQDYIQYTVPLDEGMYPLEGSRSYCLDSSSPMEVSAVPPQVGGRAFPEDESQVDQDLVVAPEIFVDQSVNGLLIGTTGVMLQSPRAGHDDVPPLSPLLPPMQNNQIQRNFSGLTGTEAHVAESMRCHLNFDPNSAPGVARVYDSVQSSGPMVVTSLTEELKKLAKQGWYWGPITRWEAEGKLANVPDGSFLVRDSSDDRYLLSLSFRSHGKTLHTRIEHSNGRFSFYEQPDVEGHTSIVDLIEHSIRDSENGAFCYSRSRLPGSATYPVRLTNPVSRFMQVRSLQYLCRFVIRQYTRIDLIQKLPLPNKMKDYLQEKHY	0.21
1.52	1.63	MAPK8IP2 (protein, UniProt Q13387 1-824, looked up) C-Jun-amino-terminal …: MADRAEMFSLSTFHSLSPPGCRPPQDISLEEFDDEDLSEITDDCGLGLSYDSDHCEKDSLSLGRSEQPHPICSFQDDFQEFEMIDDNEEEDDEDEEEEEEEEEGDGEGQEGGDPGSEAPAPGPLIPSPSVEEPHKHRPTTLRLTTLGAQDSLNNNGGFDLVRPASWQETALCSPAPEALRELPGPLPATDTGPGGAQSPVRPGCDCEGNRPAEPPAPGGTSPSSDPGIEADLRSRSSGGRGGRRSSQELSSPGSDSEDAGGARLGRMISSISETELELSSDGGSSSSGRSSHLTNSIEEASSPASEPEPPREPPRRPAFLPVGPDDTNSEYESGSESEPDLSEDADSPWLLSNLVSRMISEGSSPIRCPGQCLSPAPRPPGEPVSPAGGAAQDSQDPEAAAGPGGVELVDMETLCAPPPPAPAAPRPGPAQPGPCLFLSNPTRDTITPLWAAPGRAARPGRACSAACSEEEDEEDDEEEEDAEDSAGSPGGRGTGPSAPRDASLVYDAVKYTLVVDEHTQLELVSLRRCAGLGHDSEEDSGGEASEEEAGAALLGGGQVSGDTSPDSPDLTFSKKFLNVFVNSTSRSSSTESFGLFSCLVNGEEREQTHRAVFRFIPRHPDELELDVDDPVLVEAEEDDFWFRGFNMRTGERGVFPAFYAHAVPGPAKDLLGSKRSPCWVERFDVQFLGSVEVPCHQGNGILCAAMQKIATARKLTVHLRPPASCDLEISLRGVKLSLSGGGPEFQRCSHFFQMKNISFCGCHPRNSCYFGFITKHPLLSRFACHVFVSQESMRPVAQSVGRAFLEYYQEHLAYACPTEDIYLE	0.93
